Measurements from patent publication US20260209334A1 (MAX PLANCK GESELLSCHAFT ZUR F RDERUNG DER WISSENSCHAFTEN E V, published 2026).
Positions count from the first letter of the chain named. Read-outs that look alike come from different tables or passages of the source. One block for each binder: values may come before it.

How the values were obtained:
[1] = target: T1, recombinant human IL-17A (produced in HEK cells, Proteintech HZ-1113) (human, UniProt Q16552 24-155); assay: cell-based or functional assay
[2] = target: recombinant human IL-17A/F (produced in CHO cells, R&D Systems 5837-IL) (human, UniProt Q16552 24-155; Q96PD4 31-163, limits assumed); assay: cell-based or functional assay
[3] = target: T2, recombinant human IL-17F (produced in HEK cells, Proteintech HZ-1116) (human, UniProt Q96PD4 31-163); assay: cell-based or functional assay
T2 sequence (looked up): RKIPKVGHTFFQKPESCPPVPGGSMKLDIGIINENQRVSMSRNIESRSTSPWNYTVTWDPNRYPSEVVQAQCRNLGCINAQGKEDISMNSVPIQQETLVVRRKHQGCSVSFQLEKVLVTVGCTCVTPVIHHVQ

[4] = target: T3, human IL-17F with C-terminal Avi-tag, biotinylated, immobilized on BLI sensors (human, UniProt Q96PD4 31-163, biotin on the C-terminal Avi-tag (BirA)); assay: BLI, biotinylated IL-17F immobilized, monovalent VHH as analyte; 2:1 heterogenous model, high affinity component
T3 construct: also called biotinylated IL-17F; not shown: C-terminal Avi-tag
T3 sequence: T2 sequence (looked up)

[5] = target: T3, human IL-17F with C-terminal Avi-tag, …; assay: BLI, biotinylated IL-17F immobilized on streptavidin sensors, monovalent VHH as analyte (20, 100 nM), 2:1 heterogenous fit, low affinity component
[6] = target: T4, human IL-17A with C-terminal Avi-tag, biotinylated, immobilized on BLI sensors (human, UniProt Q16552 24-155, biotin on the C-terminal Avi-tag (BirA)); assay: BLI, biotinylated IL-17A immobilized on streptavidin sensors, monovalent VHH as analyte (20, 100 nM), 2:1 heterogenous fit, low affinity component
T4 construct: also called biotinylated IL-17A; not shown: C-terminal Avi-tag

[7] = target: T4, human IL-17A with C-terminal Avi-tag, …; assay: BLI, biotinylated IL-17A immobilized, monovalent VHH as analyte; 2:1 heterogenous model, high affinity component
[8] = target: T2, recombinant human IL-17F (produced in …); assay: cell-based or functional assay; remark: listed apart in the source
[9] = target: T4, human IL-17A with C-terminal Avi-tag, …; assay: BLI, biotinylated IL-17A immobilized on streptavidin sensors, monovalent VHH as analyte (25, 50, 100 nM), mass transport fit
[10] = target: T1, recombinant human IL-17A (produced in …); assay: cell-based or functional assay; remark: listed apart in the source
[11] = target: T4, human IL-17A with C-terminal Avi-tag, …; assay: BLI, biotinylated IL-17A immobilized, monovalent VHH as analyte
[12] = target: T3, human IL-17F with C-terminal Avi-tag, …; assay: BLI, biotinylated IL-17F immobilized, monovalent VHH as analyte
[13] = target: T5, human IL-17A/F heterodimer, bacterially expressed construct (human, UniProt Q16552 40-155; Q96PD4 39-163, limits assumed); assay: BLI, biotinylated VHH immobilized on streptavidin sensors, IL-17 as analyte (10, 20, 40 nM), mass transport fit; apparent value, avidity possible
T5 construct: IL-17A unit with N68D, IL-17F unit with N83D and C137S, both with GSEDS spacer; already in the entries

[14] = target: T6, human IL-17A homodimer, bacterially expressed construct (residues 40-155 with GSEDS spacer) (human, UniProt Q16552 40-155); assay: as above
T6 chain: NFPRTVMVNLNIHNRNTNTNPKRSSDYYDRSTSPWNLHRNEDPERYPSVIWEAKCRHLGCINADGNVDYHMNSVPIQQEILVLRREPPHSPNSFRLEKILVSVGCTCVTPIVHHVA

[15] = target: T7, human IL-17F homodimer, bacterially expressed construct (residues 39-163 with GSEGE linker) (human, UniProt Q96PD4 39-163); assay: as above
T7 construct: also called IL-17F dimer
T7 chain: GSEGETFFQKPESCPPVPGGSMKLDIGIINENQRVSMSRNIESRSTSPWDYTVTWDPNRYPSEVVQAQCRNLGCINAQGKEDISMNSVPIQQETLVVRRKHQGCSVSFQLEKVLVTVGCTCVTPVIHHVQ

[16] = target: T5, human IL-17A/F heterodimer, bacterially …; assay: BLI, VHH immobilized, IL-17 as analyte; apparent KD with avidity; µM as printed (Table 3 uses pM)
[17] = target: T6, human IL-17A homodimer, bacterially …; assay: as above
[18] = target: T7, human IL-17F homodimer, bacterially …; assay: as above
[19] = target: T4, human IL-17A with C-terminal Avi-tag, …; assay: BLI, biotinylated IL-17A immobilized on streptavidin sensors, monovalent VHH as analyte (25, 50, 100 nM), 2:1 heterogenous fit, high affinity component
[20] = target: T2, recombinant human IL-17F (produced in …); assay: cell-based or functional assay; remark: listed apart in the source
[21] = target: T5, human IL-17A/F heterodimer, bacterially …; assay: BLI, biotinylated VHH immobilized on streptavidin sensors, IL-17 as analyte (10, 20, 40 nM), mass transport fit; apparent value, avidity possible; remark: listed apart in the source
[22] = target: T6, human IL-17A homodimer, bacterially …; assay: as above
[23] = target: T7, human IL-17F homodimer, bacterially …; assay: as above

recombinant human IL-17A/F (produced in CHO cells, R&D Systems 5837-IL), sequence (Q16552 24-155 limits assumed, chain 1 of 2, one chain of several): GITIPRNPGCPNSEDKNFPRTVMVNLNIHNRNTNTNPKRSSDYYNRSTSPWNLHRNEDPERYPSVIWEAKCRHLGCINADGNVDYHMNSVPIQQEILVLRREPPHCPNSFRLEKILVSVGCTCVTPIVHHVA

B1: Bm44B04 (VHH)
VHH: QVQLVESGGGLVRTGGSLRLSCSVSGDISSQSAMGWYRQVPGRQRELVAMIHTTKGDTYYADSVKGRFTISRINANNTIYLQMNNLKPEDTAIYYCTHNEPGDLYMGQGTQVTVSS
notes: Class B, second generation
Neutralization potency, ranking from 1 = the best to 4 (HEK-Blue IL-17 reporter cells) [1]: 2 rank
Neutralization potency, ranking from 1 = the best to 4 (HEK-Blue IL-17 reporter cells) [2]: 1 rank
Neutralization potency, ranking from 1 = the best to 4 (HEK-Blue IL-17 reporter cells) [3]: 2 rank
Kd [4]: 0.35 nM
KD2 [5]: 20 nM
KD2 [6]: 25 nM
Kd [7]: 0.6 nM

B3: Bm18F11 (VHH)
VHH: QVQLVESGGDLVQAGGSLRLSCAASGLTGSSYAMGWFRQAPGKEREFVAAISWISGDTKYTDSVKGRFTMSRDNAKKQVYLEMNSLKPEDTAVYYCNDMPYGLDTRMDEYVYWGQGTQVTVSS
notes: Class A, first generation
IC50 (read off the curve), SEAP reporter, HEK-Blue IL-17 cells, 0.85 nM IL-17F [8]: ~5 nM
Kd [9]: 1 nM

B6: Bm18B05 with C-terminal Avi-Biotin-tag, biotinylated (VHH)
VHH: QVQLVESGGGLVQPGGSLRLSCAVSGRTFSSYAMGWFRRPPGKEREFVAAISWSGGDTKYADFVTDRFTISRDDAKSTVYLQMNSLKPEDTAVYYCNDMPYGLDTRMDEYEYWGQGTQVTVSS
modifications: biotin on the C-terminal Avi-tag (BirA)
notes: not shown: C-terminal Avi-Biotin-tag
Kd [13]: ≤ 0.01 nM
koff [13]: ≤ 1e-07 s⁻¹
kon [13]: 120000 M⁻¹ s⁻¹
Kd [14]: ≤ 0.01 nM
koff [14]: ≤ 1e-07 s⁻¹
kon [14]: 260000 M⁻¹ s⁻¹
Kd [15]: ≤ 0.01 nM
koff [15]: ≤ 1e-07 s⁻¹
kon [15]: 86000 M⁻¹ s⁻¹
Kd [16]: ≤ 20000 nM
Kd [17]: ≤ 20000 nM
Kd [18]: ≤ 20000 nM

B8: Bm17B02 with C-terminal Avi-Biotin-tag, biotinylated (VHH)
VHH: QVQLVESGGGLVNTGGSLRLSCVVSGHTSEISAMGWYRQAPGKQRELVALITSRSGDTHYSDSVKGRFSISRDNAKNTMYLQMNSLNPDDTAVYYCVHNEPGHLYMAQGTQVTVSS
modifications: biotin on the C-terminal Avi-tag (BirA)
notes: as for B6
Kd [21]: ≤ 0.01 nM
koff [21]: ≤ 1e-07 s⁻¹
kon [21]: 1.4e+06 M⁻¹ s⁻¹
Kd [22]: ≤ 0.01 nM
koff [22]: ≤ 1e-07 s⁻¹
kon [22]: 220000 M⁻¹ s⁻¹
Kd [23]: 0.02 nM
koff [23]: 5.4e-05 s⁻¹
kon [23]: 750000 M⁻¹ s⁻¹
Kd [16]: ≤ 20000 nM
Kd [17]: ≤ 20000 nM
Kd [18]: ≤ 20000 nM

B9: Bm17B02 (VHH)
VHH: B8 VHH
notes: Class B, first generation; For the crystal it was made with a His14-ScSUMO tag that was cleaved off
Kd [19]: 0.7 nM

Other lines, results leading:

Neutralization potency, ranking from 1 = the best to 4 (HEK-Blue IL-17 reporter cells) [1]: 3 rank
Neutralization potency, ranking from 1 = the best to 4 (HEK-Blue IL-17 reporter cells) [2]: 4 rank
Neutralization potency, ranking from 1 = the best to 4 (HEK-Blue IL-17 reporter cells) [3]: 1 rank
Kd [4]: 1 nM
KD2 [5]: 40 nM
KD2 [6]: 120 nM
Kd [7]: 3 nM
B2: Bm44G07 (VHH)
VHH: B1 VHH with E6Q, R13Q, G66D, Y80H
notes: Class B, second generation

IC50 (read off the curve), SEAP reporter, HEK-Blue IL-17 cells, 0.17 nM IL-17A [10]: ~2 nM
Neutralization potency, ranking from 1 = the best to 4 (HEK-Blue IL-17 reporter cells) [1]: 4 rank
Neutralization potency, ranking from 1 = the best to 4 (HEK-Blue IL-17 reporter cells) [2]: 1 rank
Neutralization potency, ranking from 1 = the best to 4 (HEK-Blue IL-17 reporter cells) [3]: 1 rank
Kd [11]: 2 nM
Kd [12]: 0.1 nM
B4: Bm44C09 (VHH)
VHH: B3 VHH with D10G, T28A, G29V, D57G, T61A, G66D, E109D, V111K, T117I
notes: Class A, second generation

Kd [13]: ≤ 0.01 nM
koff [13]: ≤ 1e-07 s⁻¹
kon [13]: 280000 M⁻¹ s⁻¹
Kd [14]: ≤ 0.01 nM
koff [14]: ≤ 1e-07 s⁻¹
kon [14]: 95000 M⁻¹ s⁻¹
Kd [15]: ≤ 0.01 nM
koff [15]: ≤ 1e-07 s⁻¹
kon [15]: 150000 M⁻¹ s⁻¹
Kd [16]: ≤ 20000 nM
Kd [17]: ≤ 20000 nM
Kd [18]: ≤ 20000 nM
B5: Bm18F11 with C-terminal Avi-Biotin-tag, biotinylated (VHH)
VHH: B3 VHH
modifications: biotin on the C-terminal Avi-tag (BirA)
notes: as for B6

Kd [19]: 1 nM
Neutralization potency, ranking from 1 = the best to 4 (HEK-Blue IL-17 reporter cells) [1]: 2 rank
Neutralization potency, ranking from 1 = the best to 4 (HEK-Blue IL-17 reporter cells) [2]: 3 rank
Neutralization potency, ranking from 1 = the best to 4 (HEK-Blue IL-17 reporter cells) [3]: 4 rank
IC50 (read off the curve), SEAP reporter, HEK-Blue IL-17 cells, 0.85 nM IL-17F [20]: ~5 nM
Kd [4]: 6 nM
KD2 [5]: 60 nM
KD2 [6]: 60 nM
Kd [7]: 1 nM
B7: Re42F08 (VHH)
VHH: B8 VHH with N13K, T14A
notes: Class B, first generation

Kd [21]: ≤ 0.01 nM
koff [21]: ≤ 1e-07 s⁻¹
kon [21]: 510000 M⁻¹ s⁻¹
Kd [22]: ≤ 0.01 nM
koff [22]: ≤ 1e-07 s⁻¹
kon [22]: 160000 M⁻¹ s⁻¹
Kd [23]: 0.02 nM
koff [23]: ≤ 1e-07 s⁻¹
kon [23]: 500000 M⁻¹ s⁻¹
Kd [16]: ≤ 20000 nM
Kd [17]: ≤ 20000 nM
Kd [18]: ≤ 20000 nM
B10: Re42F08 with C-terminal Avi-Biotin-tag, biotinylated (VHH)
VHH: B8 VHH with N13K, T14A
modifications: biotin on the C-terminal Avi-tag (BirA)
notes: as for B6
